Measured values as given in the supplement of paper PMC10126150.
± gives the standard deviation of the averaged measurements.

Tested on: ATP
Assay: switch fluorescence ratio, 500 uM ATP over buffer (Cy3 cluster intensity, sum of 5 cycles each) (fold (ratio)); higher = stronger signal-on switching upon ATP binding; sequences stand for … in TCGTCGGCAGCGTCAGATGTGTATAAGAGACAGTTTTTTTTTTTTTTTTTTTTTTTTT…TC
Details: aptamer strand: ATP DNA aptamer (quencher-CACCTGGGGGAGTATTGCGGAGGAAGG + anchor), 100 nM annealed; ATP concentration: 500 uM
Summary of the method: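 Between each of five buffer/ATP cycles, the flow-cell was stripped with NaOH and re-annealed. Each cycle imaged Cy3-labelled switching-strand clusters, annealed to 100 nM quencher-labelled ATP aptamer on a modified Illumina MiSeq flow-cell, first in selection buffer and then after 15 min with 500 uM ATP at 22 °C. The fluorescence ratio is summed target-cycle over summed buffer-cycle Cy3 intensity per cluster, averaged per switch-domain sequence, with clusters outside 100-1000 RFU excluded.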
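Also: ATP exposure 15 min at 22 °C before imaging.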

Sequence | switch fluorescence ratio
TGGGGATCGA | 1.04 ± 0.011
TGGGGATTAG | 1.01 ± 0.033
TGGGGCACCG | 0.994 ± 0.029
TGGGGCAGCA | 1.01 ± 0.042
TGGGGCAGCG | 1.007 ± 0.0039
TGGGGCCGAT | 1.02 ± 0.021
TGGGGCGCTA | 1.07 ± 0.11
TGGGGCGTTT | 1.01 ± 0.022
TGGGGCTCTA | 1.03 ± 0.033
TGGGGCTTAT | 0.987 ± 0.026
TGGGGCTTTT | 1.02 ± 0.053
TGGGGGAATC | 1.02 ± 0.046
TGGGGGAATG | 0.992 ± 0.0027
TGGGGGACAT | 1.01 ± 0.028
TGGGGGATGG | 0.996 ± 0.057
TGGGGGCAGT | 1.12 ± 0.066
TGGGGGCTGG | 0.991 ± 0.013
TGGGGGG | 1.016 ± 0.0078
TGGGGGGAAC | 1.02 ± 0.019
TGGGGGGAAG | 0.994 ± 0.018
TGGGGGGCGA | 0.997 ± 0.011
TGGGGGGCGC | 0.989 ± 0.025
TGGGGGGCGT | 1.01 ± 0.043
TGGGGGGGAG | 0.996 ± 0.029
TGGGGGGGCC | 0.968 ± 0.0076

Sequence | switch fluorescence ratio
TGGGGGGTGG | 1 ± 0.041
TGGGGGGTGT | 1.02 ± 0.069
TGGGGGTAAA | 0.9997 ± 0.0091
TGGGGGTCCT | 1.01 ± 0.031
TGGGGTACAC | 0.993 ± 0.024
TGGGGTACGA | 1.01 ± 0.026
TGGGGTACGG | 1.004 ± 0.0064
TGGGGTACGT | 1.02 ± 0.013
TGGGGTACTT | 0.973 ± 0.027
TGGGGTAGGT | 0.999 ± 0.011
TGGGGTCAGG | 1.016 ± 0.0086
TGGGGTCTCT | 0.985 ± 0.042
TGGGGTGATC | 1 ± 0.029
TGGGGTGCGA | 1.01 ± 0.042
TGGGGTGGCA | 1.01 ± 0.045
TGGGGTGGCT | 0.985 ± 0.015
TGGGGTTCAC | 0.998 ± 0.018
TGGGGTTGAA | 0.958 ± 0.022
TGGGGTTTCG | 0.973 ± 0.038
TGGGGTTTTG | 0.979 ± 0.015
TGGGTAAAGT | 0.971 ± 0.019
TGGGTAACTT | 1.1 ± 0.18
TGGGTAAGTA | 0.993 ± 0.012
TGGGTAAGTG | 0.975 ± 0.022
TGGGTACGCT | 1.01 ± 0.022

Sequence | switch fluorescence ratio
TGGGTAGAAC | 1.12 ± 0.13
TGGGTATATA | 1.03 ± 0.016
TGGGTATGAA | 0.977 ± 0.019
TGGGTATTCC | 1.021 ± 0.0085
TGGGTCAGGT | 0.9994 ± 0.0084
TGGGTCGTGC | 0.99 ± 0.011
TGGGTCTACT | 0.9761 ± 0.0084
TGGGTCTAGT | 0.9975 ± 0.0042
TGGGTGACGA | 1.01 ± 0.024
TGGGTGCAAA | 1.01 ± 0.033
TGGGTGTAT | 1.01 ± 0.023
TGGGTGTCAC | 0.9868 ± 0.005
TGGGTGTGTT | 0.995 ± 0.028
TGGGTTAGCG | 0.995 ± 0.041
TGGGTTAGGT | 0.977 ± 0.022
TGGGTTAGTA | 0.984 ± 0.015
TGGGTTATAT | 0.979 ± 0.011
TGGGTTATGC | 0.984 ± 0.018
TGGGTTATGT | 0.992 ± 0.019
TGGGTTCGGT | 0.995 ± 0.0032
TGGGTTCTGA | 0.98 ± 0.011
TGGGTTGGAT | 0.99 ± 0.013
TGGGTTTATT | 0.984 ± 0.014
TGGGTTTCAG | 0.996 ± 0.05
TGGGTTTTCA | 0.984 ± 0.016

Sequence | switch fluorescence ratio
TGGGTTTTCT | 1.08 ± 0.28
TGGGTTTTTA | 0.9442 ± 0.0014
TGGGTTTTTG | 1.01 ± 0.039
TGGTAAATCT | 1 ± 0.036
TGGTAATATA | 1.02 ± 0.024
TGGTAATATC | 1.012 ± 0.0024
TGGTAATCAA | 1.01 ± 0.039
TGGTACGGGG | 1.02 ± 0.033
TGGTACGGTC | 0.927 ± 0.041
TGGTAGAGAT | 1.01 ± 0.051
TGGTAGGGTG | 1.01 ± 0.034
TGGTAGTAGG | 0.995 ± 0.017
TGGTAGTCGT | 0.994 ± 0.043
TGGTAGTGAC | 1.03 ± 0.064
TGGTAGTTTT | 0.9899 ± 0.0078
TGGTATATT | 0.986 ± 0.027
TGGTATTGTG | 0.947 ± 0.021
TGGTATTTGG | 0.949 ± 0.046
TGGTCAACTA | 1 ± 0.02
TGGTCAGCTA | 1.02 ± 0.025
TGGTCCATGG | 1.008 ± 0.007
TGGTCCATTT | 1.014 ± 0.0091
TGGTCCCGGA | 1 ± 0.017
TGGTCGGGGT | 1.01 ± 0.013
TGGTCGTCTT | 1.05 ± 0.035
